The numbers were not newly measured in US20230090114A1, “METHODS FOR PROMOTING WEIGHT LOSS” (89BIO LTD., priority 2020, published 2023), which cites them from elsewhere.

The conditions of the series: in vivo; cited from earlier work.

B1: recombinant human FGF-21: recombinant human FGF-21 (SEQ ID NO: 1 is native human FGF-21) (protein, listed as Homo sapiens)
chain: MHPIPDSSPLLQFGGQVRQRYLYTDDAQQTEAHLEIREDGTVGGAADQSPESLLQLKALKPGVIQILGVKTSRFLCQRPDGALYGSLHFDPEACSFRELLLEDGYNVYQSEAHGLPLHLPGNKSPHRDPAPRGPARFLPLPGLPPALPEPPGILAPQPPDVGSSDPLSMVGPSQGRSPSYAS
Consider B1, for which the half-life (commonly the time needed for the level to fall by half in the phase considered) was 1 to 2 h.
